The series deals with Matrin 3 (endogenous, HCT116 nuclear extract) (Homo sapiens (HCT116)). The series is described as follows: pull-down + mass spectrometry. The conditions noted are these: rMatrin 3 pulldown: 25 mM Tris-HCl pH 7.5, 150 mM KCl, 0.1% Triton X-100, 100 ug/ml BSA, 2 mM DTT, 5% glycerol, room temperature, 2 hr.

For the substance Bi-PINCR (full-length PINCR transcript), the binding signal (fold over Bi-LUC) reads like this: (DOXO-treated nuclear extract) 16; (untreated nuclear extract) 8.
